# In patent US20180340025A1 (Novartis, published 2018):
# T1: human LAG-3 expressed on cells (human, UniProt P18627 23-525)
# T1 construct: whole, on cells; Treated as one protein; the host cell is named under assay; also called LAG-3-expressing CHO cells; LAG-3-transfected CHO cells
# T1 sequence (looked up): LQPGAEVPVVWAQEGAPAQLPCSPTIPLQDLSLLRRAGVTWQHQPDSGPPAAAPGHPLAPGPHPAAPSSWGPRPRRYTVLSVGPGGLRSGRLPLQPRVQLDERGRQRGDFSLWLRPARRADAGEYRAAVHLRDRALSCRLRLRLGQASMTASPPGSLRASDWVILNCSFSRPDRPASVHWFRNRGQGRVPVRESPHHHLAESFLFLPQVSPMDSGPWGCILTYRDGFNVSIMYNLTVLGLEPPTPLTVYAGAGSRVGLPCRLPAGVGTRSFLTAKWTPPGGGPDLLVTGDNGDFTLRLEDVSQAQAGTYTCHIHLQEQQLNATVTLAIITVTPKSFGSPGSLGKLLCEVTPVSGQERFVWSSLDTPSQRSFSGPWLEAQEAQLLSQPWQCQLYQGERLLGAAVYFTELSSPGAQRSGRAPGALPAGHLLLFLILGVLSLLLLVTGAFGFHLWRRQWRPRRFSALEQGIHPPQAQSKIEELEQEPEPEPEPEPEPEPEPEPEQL
# What was measured:
# [1] = biological target: T1, human LAG-3 expressed on cells; test: rank of the clone among the humanized clones by the FACS binding data on LAG-3-expressing cells
# [2] = biological target: T1, human LAG-3 expressed on cells; test: rank of the clone by the competition binding data (test mAb against FITC-labeled murine BAP050 on LAG-3-expressing CHO cells), curve position relative to the chimeric mAb in two experiments
# Description: Incubations with the mAb mixtures having different concentration ratios of test mAb to labeled mAb was at 4° C. for 30 min. […] The experiment was performed twice.
# Such a ranking system was used in FIG. 6.
Binder,"Ranking, Binding data [1]","Ranking, Compet. data [2]"
"BAP050-hum19 (antibody, human IgG4 S228P, kappa, humanized IgG4(S228P)/kappa, transient CHO supernatant) heavy: not shown light: EIVLTQSPDFQSVTPKEKVTITCSSSQDISNYLNWYQQKPGQAPRLLIYYTSTLHLGVPSRFSGSGSGTDFTFTISSLEAEDAATYYCQQYYNLPWTFGQGTKVEIKRTVAAPSVFIFPPSDEQLKSGTASVVCLLNNFYPREAKVQWKVDNALQSGNSQESVTEQDSKDSTYSLSSTLTLSKADYEKHKVYACEVTHQGLSSPVTKSFNRGEC",9,> 3
"BAP050-hum08 (antibody, human IgG4 S228P, kappa, humanized IgG4(S228P)/kappa, transient CHO supernatant) heavy: not shown light: EIVLTQSPDFQSVTPKEKVTITCSSSQDISNYLNWYQQKPGQAPRLLIYYTSTLHLGVPSRFSGSGSGTDFTLTISSLQPEDFATYYCQQYYNLPWTFGQGTKVEIKRTVAAPSVFIFPPSDEQLKSGTASVVCLLNNFYPREAKVQWKVDNALQSGNSQESVTEQDSKDSTYSLSSTLTLSKADYEKHKVYACEVTHQGLSSPVTKSFNRGEC",4,> 3
"BAP050-hum20 (antibody, human IgG4 S228P, kappa, V domains shown, humanized IgG4(S228P)/kappa, transient CHO supernatant) VH: QVQLVQSGAEVKKPGASVKVSCKASGFTLTNYGMNWVRQARGQRLEWIGWINTDTGEPTYADDFKGRFVFSLDTSVSTAYLQICSLKAEDTAVYYCARNPPYYYGTNNAEAMDYWGQGTTVTVSS VL: DIVMTQTPLSLPVTPGEPASISCSSSQDISNYLNWYQQKPGQAPRLLIYYTSTLHLGIPDRFSGSGSGTDFTLTISRLEPEDFAVYYCQQYYNLPWTFGQGTKVEIKR",9,3
"BAP050-hum13 (antibody, human IgG4 S228P, kappa, V domains shown, humanized IgG4(S228P)/kappa, transient CHO supernatant; also called humanized clone No. 13) VH: QVQLVQSGAEVKKPGASVKVSCKASGFTLTNYGMNWVRQAPGQGLEWMGWINTDTGEPTYADDFKGRFVFSLDTSVSTAYLQICSLKAEDTAVYYCARNPPYYYGTNNAEAMDYWGQGTTVTVSS VL: DIQMTQSPSSLSASVGDRVTITCSSSQDISNYLNWYQQKPGKAPKLLIYYTSTLHLGIPPRFSGSGYGTDFTLTINNIESEDAAYYFCQQYYNLPWTFGQGTKVEIKR",9,3
"BAP050-hum10 (antibody, human IgG4 S228P, kappa, V domains shown, humanized IgG4(S228P)/kappa, transient CHO supernatant) VH: QVQLVQSGAEVKKPGASVKVSCKASGFTLTNYGMNWVRQARGQRLEWIGWINTDTGEPTYADDFKGRFVFSLDTSVSTAYLQICSLKAEDTAVYYCARNPPYYYGTNNAEAMDYWGQGTTVTVSS VL: EIVLTQSPATLPVTLGQPASISCSSSQDISNYLNWYQQKPGQAPRLLIYYTSTLHLGVPSRFSGSGSGTDFTFTISSLEAEDAATYYCQQYYNLPWTFGQGTKVEIKR",9,2
"BAP050-hum09 (antibody, human IgG4 S228P, kappa, V domains shown, humanized IgG4(S228P)/kappa, transient CHO supernatant; also called humanized clone No. 09) VH: QVQLVQSGAEVKKPGASVKVSCKASGFTLTNYGMNWVRQARGQRLEWIGWINTDTGEPTYADDFKGRFVFSLDTSVSTAYLQICSLKAEDTAVYYCARNPPYYYGTNNAEAMDYWGQGTTVTVSS VL: DIQMTQSPSSLSASVGDRVTITCSSSQDISNYLNWYQQKPGKAPKLLIYYTSTLHLGIPPRFSGSGYGTDFTLTINNIESEDAAYYFCQQYYNLPWTFGQGTKVEIKR",8,2
"BAP050-hum06 (antibody, human IgG4 S228P, kappa, V domains shown, humanized IgG4(S228P)/kappa, transient CHO supernatant) VH: EVQLVQSGAEVKKPGATVKISCKVSGFTLTNYGMNWVRQAPGQGLEWMGWINTDTGEPTYADDFKGRFVFSLDTSVSTAYLQICSLKAEDTAVYYCARNPPYYYGTNNAEAMDYWGQGTTVTVSS VL: DIVMTQTPLSLPVTPGEPASISCSSSQDISNYLNWYQQKPGQAPRLLIYYTSTLHLGVPSRFSGSGSGTEFTLTISSLQPDDFATYYCQQYYNLPWTFGQGTKVEIKR",9,1
"BAP050-hum11 (antibody, human IgG4 S228P, kappa, V domains shown, humanized IgG4(S228P)/kappa, transient CHO supernatant; also called humanized clone No. 11) VH: QVQLVQSGAEVKKPGASVKVSCKASGFTLTNYGMNWVRQARGQRLEWIGWINTDTGEPTYADDFKGRFVFSLDTSVSTAYLQICSLKAEDTAVYYCARNPPYYYGTNNAEAMDYWGQGTTVTVSS VL: DIQMTQSPSSLSASVGDRVTITCSSSQDISNYLNWYLQKPGQSPQLLIYYTSTLHLGVPSRFSGSGSGTEFTLTISSLQPDDFATYYCQQYYNLPWTFGQGTKVEIKR",2,2
"BAP050-hum12 (antibody, human IgG4 S228P, kappa, V domains shown, humanized IgG4(S228P)/kappa, transient CHO supernatant; also called humanized clone No. 12) VH: QVQLVQSGAEVKKPGASVKVSCKASGFTLTNYGMNWVRQARGQRLEWIGWINTDTGEPTYADDFKGRFVFSLDTSVSTAYLQICSLKAEDTAVYYCARNPPYYYGTNNAEAMDYWGQGTTVTVSS VL: EIVLTQSPDFQSVTPKEKVTITCSSSQDISNYLNWYQQKPGQAPRLLIYYTSTLHLGVPSRFSGSGSGTDFTLTISSLQPEDFATYYCQQYYNLPWTFGQGTKVEIKR",3,2
"BAP050-hum17 (antibody, human IgG4 S228P, kappa, V domains shown, humanized IgG4(S228P)/kappa, transient CHO supernatant) VH: QVQLVQSGSELKKPGASVKVSCKASGFTLTNYGMNWVRQAPGQGLEWMGWINTDTGEPTYADDFKGRFVFSLDTSVSTAYLQISTLKAEDTATYFCARNPPYYYGTNNAEAMDYWGQGTTVTVSS VL: DIQMTQSPSSLSASVGDRVTITCSSSQDISNYLNWYQQKPGKAPKLLIYYTSTLHLGVPSRFSGSGSGTDFTFTISSLQPEDIATYYCQQYYNLPWTFGQGTKVEIKR",9,> 3
"BAP050-hum05 (antibody, human IgG4 S228P, kappa, humanized IgG4(S228P)/kappa, transient CHO supernatant; also called humanized clone No. 05) heavy: not shown light: EIVLTQSPATLSLSPGERATLSCSSSQDISNYLNWYQQKPGKAPKLLIYYTSTLHLGVPSRFSGSGSGTDFTFTISSLEAEDAATYYCQQYYNLPWTFGQGTKVEIKRTVAAPSVFIFPPSDEQLKSGTASVVCLLNNFYPREAKVQWKVDNALQSGNSQESVTEQDSKDSTYSLSSTLTLSKADYEKHKVYACEVTHQGLSSPVTKSFNRGEC",6,> 3
"BAP050-hum02 (antibody, human IgG4 S228P, kappa, V domains shown, humanized IgG4(S228P)/kappa, transient CHO supernatant; also called humanized clone No. 02) VH: EVQLVQSGAEVKKPGATVKISCKVSGFTLTNYGMNWVRQAPGQGLEWMGWINTDTGEPTYADDFKGRFVFSLDTSVSTAYLQICSLKAEDTAVYYCARNPPYYYGTNNAEAMDYWGQGTTVTVSS VL: DIQMTQSPSSLSASVGDRVTITCSSSQDISNYLNWYQQKPGKAPKLLIYYTSTLHLGIPPRFSGSGYGTDFTLTINNIESEDAAYYFCQQYYNLPWTFGQGTKVEIKR",5,1
"BAP050-hum07 (antibody, human IgG4 S228P, kappa, V domains shown, humanized IgG4(S228P)/kappa, transient CHO supernatant) VH: EVQLVQSGAEVKKPGATVKISCKVSGFTLTNYGMNWVRQAPGQGLEWMGWINTDTGEPTYADDFKGRFVFSLDTSVSTAYLQICSLKAEDTAVYYCARNPPYYYGTNNAEAMDYWGQGTTVTVSS VL: DIQMTQSPSSLSASVGDRVTITCSSSQDISNYLNWYLQKPGQSPQLLIYYTSTLHLGVPSRFSGSGSGTEFTLTISSLQPDDFATYYCQQYYNLPWTFGQGTKVEIKR",8,> 3
"BAP050-hum04 (antibody, human IgG4 S228P, kappa, V domains shown, humanized IgG4(S228P)/kappa, transient CHO supernatant) VH: EVQLVQSGAEVKKPGATVKISCKVSGFTLTNYGMNWVRQAPGQGLEWMGWINTDTGEPTYADDFKGRFVFSLDTSVSTAYLQICSLKAEDTAVYYCARNPPYYYGTNNAEAMDYWGQGTTVTVSS VL: DIQMTQSPSSLSASVGDRVTITCSSSQDISNYLNWYLQKPGQSPQLLIYYTSTLHLGIPDRFSGSGSGTDFTLTISRLEPEDFAVYYCQQYYNLPWTFGQGTKVEIKR",8,2
"BAP050-hum14 (antibody, human IgG4 S228P, kappa, V domains shown, humanized IgG4(S228P)/kappa, transient CHO supernatant) VH: EVQLVQSGAEVKKPGATVKISCKVSGFTLTNYGMNWIRQSPSRGLEWLGWINTDTGEPTYADDFKGRFVFSLDTSVSTAYLQICSLKAEDTAVYYCARNPPYYYGTNNAEAMDYWGQGTTVTVSS VL: EIVLTQSPATLPVTLGQPASISCSSSQDISNYLNWYQQKPGQAPRLLIYYTSTLHLGVPSRFSGSGSGTDFTFTISSLEAEDAATYYCQQYYNLPWTFGQGTKVEIKR",9,> 3
"BAP050-hum15 (antibody, human IgG4 S228P, kappa, V domains shown, humanized IgG4(S228P)/kappa, transient CHO supernatant) VH: EVQLVQSGAEVKKPGATVKISCKVSGFTLTNYGMNWIRQSPSRGLEWLGWINTDTGEPTYADDFKGRFVFSLDTSVSTAYLQICSLKAEDTAVYYCARNPPYYYGTNNAEAMDYWGQGTTVTVSS VL: EIVLTQSPDFQSVTPKEKVTITCSSSQDISNYLNWYQQKPGQAPRLLIYYTSTLHLGVPSRFSGSGSGTDFTLTISSLQPEDFATYYCQQYYNLPWTFGQGTKVEIKR",20,20
"BAP050-hum03 (antibody, human IgG4 S228P, kappa, humanized IgG4(S228P)/kappa, transient CHO supernatant) heavy: not shown light: EIVLTQSPATLPVTLGQPASISCSSSQDISNYLNWYQQKPGQAPRLLIYYTSTLHLGVPSRFSGSGSGTDFTFTISSLEAEDAATYYCQQYYNLPWTFGQGTKVEIKRTVAAPSVFIFPPSDEQLKSGTASVVCLLNNFYPREAKVQWKVDNALQSGNSQESVTEQDSKDSTYSLSSTLTLSKADYEKHKVYACEVTHQGLSSPVTKSFNRGEC",7,1
"BAP050-hum16 (antibody, human IgG4 S228P, kappa, V domains shown, humanized IgG4(S228P)/kappa, transient CHO supernatant) VH: EVQLVQSGAEVKKPGESLRISCKGSGFTLTNYGMNWVRQATGQGLEWMGWINTDTGEPTYADDFKGRVTISADKSISTAYLQWSSLKASDTAMYYCARNPPYYYGTNNAEAMDYWGQGTTVTVSS VL: EIVLTQSPDFQSVTPKEKVTITCSSSQDISNYLNWYQQKPGQAPRLLIYYTSTLHLGVPSRFSGSGSGTDFTLTISSLQPEDFATYYCQQYYNLPWTFGQGTKVEIKR",20,20
